{"source": "paper PMC10267149", "about": "“The structure of phosphatidylinositol remodeling MBOAT7 reveals its catalytic mechanism and enables inhibitor identification” (Nature Communications, 2023)", "proteins": {"B1": {"name": "MBOAT7 (Homo sapiens) (protein)", "chain": "MSPEEWTYLVVLLISIPIGFLFKKAGPGLKRWGAAAVGLGLTLFTCGPHTLHSLVTILGTWALIQAQPCSCHALALAWTFSYLLFFRALSLLGLPTPTPFTNAVQLLLTLKLVSLASEVQDLHLAQRKEMASGFSKGPTLGLLPDVPSLMETLSYSYCYVGIMTGPFFRYRTYLDWLEQPFPGAVPSLRPLLRRAWPAPLFGLLFLLSSHLFPLEAVREDAFYARPLPARLFYMIPVFFAFRMRFYVAWIAAECGCIAAGFGAYPVAAKARAGGGPTLQCPPPSSPEKAASLEYDYETIRNIDCYSTDFCVRVRDGMRYWNMTVQWWLAQYIYKSAPARSYVLRSAWTMLLSAYWHGLHPGYYLSFLTIPLCLAAEGRLESALRGRLSPGGQKAWDWVHWFLKMRAYDYMCMGFVLLSLADTLRYWASIYFCIHFLALAALGLGLALGGGSPSRRKAASQPTSLAPEKLREE", "notes": "full-length (1-472), C-terminal GFP-strepII removed by TEV; expressed in HEK293 freestyle cells; digitonin then amphipol PMAL-C8; monomer, 53 kDa"}}, "substrate": "CCCCC/C=C\\C/C=C\\C/C=C\\C/C=C\\CCCC(=O)SCCNC(=O)CCNC(=O)[C@H](O)C(C)(C)COP(=O)(O)OP(=O)(O)OC[C@H]1O[C@@H](n2cnc3c(N)ncnc32)[C@H](O)[C@@H]1OP(=O)(O)O", "experiment": "fluorescence assay of CoA-SH release with CPM", "type": "biochemical, Homo sapiens", "details": "PMAL-C8 reconstituted, 100 µM lyso-PI, pH 7.5, 37 °C, 2 mg/ml BSA"}
{"protein": "B1", "values": [{"measurement": "Km", "value": 46, "unit": "µM"}]}
